In patent US20260185137A1, “FRET Active E2-UBL Conjugates and Uses Thereof” (Board of Regents, The University of Texas System, priority 2021, published 2026):
Values belong to the molecule of their own block, whether it stands above or below them.

Legend:
[1] = target: T1, TRIM5α RING domain (Macaca mulatta, UniProt Q0PF16); assay: 15N HSQC NMR spectroscopy of RING constructs (dimer-monomer exchange); set-up: species or system rhesus monkey; settings: NMR time scale, 298K
T1 construct: The R1 constructs encompass residues 2-90 of rhesus monkey TRIM5α; 6His (N, cleaved yes); GB1 solubility tag (N, cleaved yes); made in house; host or cells: bacteria
Procedure: We then collected series of ^15N HSQC spectra by gradually decreasing protein concentration of the R1-WT sample from […] to 10 μM. As the concentration of the sample was lowered one set of peaks became progressively weaker whereas a new set of peaks appeared and became dominant (FIG. 2A and FIG. 2B). […] The findings confirmed that the R1-WT construct exists in a dimer-monomer equilibrium and that the two distinct sets of NMR signals present at high and low concentrations correspond to the dimeric and monomeric states of the protein, respectively.
NMR spectroscopy. All NMR experiments were performed in 50 mM Sodium Phosphate (pH 7.5), 150 mM NaCl, 1 mM TCEP, 10% (v/v) D2O, 0.04% (w/v) NaN3, and the data collected at 298K on a Bruker Avance 700-MHz spectrometer equipped with a cryoprobe. Backbone assignments were carried out using standard TROSY triple resonance NMR experiments (HNCO, HN(CA)CO, HN(CO)CA, HNCA, HNCACB, and HN(CO)CACB). Protein concentrations for each experiment are shown in the corresponding figures or noted in figure legends. The NMR data were processed using NMRPipe and spectra evaluated using NMRFAM-Sparky.

[2] = target: T2, UBE2N/V2-Ub conjugate (Homo sapiens, UniProt P61088); assay: FRET ubiquitin discharge assay, UBE2N/V2-Ub conjugate; assay type: biochemical; settings: per RING monomer; room temperature
T2 construct: made in house; host or cells: bacteria
Source text: To evaluate contributions of distinct RING oligomeric states to TRIM5α autoubiquitination we investigated the catalytic activity of the RING constructs. E3 ubiquitin ligases catalyze the transfer of ubiquitin from the high-energy thioester-linked E2-Ub conjugates onto an amine group of the substrate. One of the challenges in the mechanistic studies of E3 ligases is the difficulty of measuring rates of chemical transformations catalyzed by E3 ligases with sufficient precision. In this study we developed a FRET-based ubiquitin discharge assay that allows continuous, real-time measurement of E3-catalyzed ubiquitin release from E2-Ub conjugates present at nanomolar concentrations in multiple samples in parallel using a fluorescence plate reader (FIG. 3A). […] FRET signals of the E2-Ub conjugates were recorded as a function of time following addition of different RING constructs using AF488 excitation (485/20 nm) and AF594 emission (645/40 nm) bandpass filters. We observed that more than 40% of the total fluorescence signal decayed in a RING-dependent fashion and could, therefore, be attributed to the FRET signal of the conjugate. The outstanding sensitivity, signal-to-noise and throughput of the FRET decay measurements enabled robust and accurate quantification of ubiquitin discharge. […]

T2 sequence (P61088 whole entry, other chains not shown): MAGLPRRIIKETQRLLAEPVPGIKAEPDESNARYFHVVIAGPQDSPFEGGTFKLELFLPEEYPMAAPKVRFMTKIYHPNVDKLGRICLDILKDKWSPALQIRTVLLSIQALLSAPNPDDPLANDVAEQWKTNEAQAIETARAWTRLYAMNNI
T2 sequence (Q15819 whole entry partner, other chains not shown): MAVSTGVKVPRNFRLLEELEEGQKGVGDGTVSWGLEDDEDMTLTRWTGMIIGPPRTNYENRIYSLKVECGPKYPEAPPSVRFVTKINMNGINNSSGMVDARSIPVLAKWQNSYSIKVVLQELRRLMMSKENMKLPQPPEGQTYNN

- dimer-monomer exchange rate [1]: < 10 Hz
B1: R1-WT: isolated RING monomer construct, residues 2-89 of the rhesus TRIM5α (protein)
chain: ASGILLNVKEEVTCPICLELLTEPLSLHCGHSFCQACITANHKKSMLYKEGERSCPVCRISYQPENIQPNRHVANIVEKLREVKLSPEE

B2: R2-WT: tandem RING dimer; R82 of first RING linked to A2 of second through Gly-Ser linker (protein)
chain: ASGILLNVKEEVTCPICLELLTEPLSLHCGHSFCQACITANHKKSMLYKEGERSCPVCRISYQPENIQPNRHVANIVEKLRGSASGILLNVKEEVTCPICLELLTEPLSLHCGHSFCQACITANHKKSMLYKEGERSCPVCRISYQPENIQPNRHVANIVEKLREVKLSPEEGQ
- E3 activity (kcat/Km, initial slopes of Michaelis-Menten curves), ubiquitin discharge from UBE2N/V2-Ub conjugate [2]: significantly higher than that of the R1-WT
